Measured values published in PMC3683068.
Where two headings read alike, the source gives them in different places.

What was measured:
Experiment in all cases: two-hybrid; mammalian two-hybrid in HEK-293 cells; GAL4-ASK1 fragments in pBIND, VP16-Nef in pACT, pG5luc reporter; firefly luciferase/Renilla 48 hrs after transfection, fold over the pACT-pBIND negative control
[1] = biological target: ASK1 (1-1051 aa), GAL4 fusion (UniProt Q99683)
[2] = biological target: ASK1 (1-904 aa), GAL4 fusion (UniProt Q99683)
[3] = biological target: ASK1 (1-1051 aa), GAL4 fusion (UniProt Q99683); remark: listed apart in the source
[4] = biological target: ASK1 (1-345 aa), GAL4 fusion (UniProt Q99683)
[5] = biological target: ASK1 (1-1051 aa), GAL4 fusion (UniProt Q99683); remark: listed apart in the source
[6] = biological target: ASK1 (861-1051 aa), GAL4 fusion (UniProt Q99683)
[7] = biological target: ASK1 (1-904 aa), GAL4 fusion (UniProt Q99683); remark: listed apart in the source
[8] = biological target: ASK1 (319-1051 aa), GAL4 fusion (UniProt Q99683)
[9] = biological target: ASK1 (1-1051 aa), GAL4 fusion (UniProt Q99683); remark: listed apart in the source

Substance	fold increase in luciferase/renilla over pACT-pBIND [1] [fold]	fold increase in luciferase/renilla over pACT-pBIND [2] [fold]	fold increase in luciferase/renilla over pACT-pBIND [3] [fold]	fold increase in luciferase/renilla over pACT-pBIND [4] [fold]	fold increase in luciferase/renilla over pACT-pBIND [5] [fold]	fold increase in luciferase/renilla over pACT-pBIND [6] [fold]	fold increase in luciferase/renilla over pACT-pBIND [7] [fold]	fold increase in luciferase/renilla over pACT-pBIND [8] [fold]	fold increase in luciferase/renilla over pACT-pBIND [9] [fold]
HIV-1 Nef (57-174 aa), VP16 fusion (domain or fragment)	81.7	–	–	–	–	–	–	–	–
HIV-1 Nef core domain (57-207 aa), VP16 fusion (domain or fragment)	153	9.15	162	2.05	156	2.93	8.75	2.83	157
